Tested on: P19 cells
Assay: Standalone (intrinsic) promoter activity screen, UCOE-GFP construct lacking the Ef1a promoter
Assay type: cell-based, mouse
Conditions: for inherent promoter activity: synthetic construct without other promoter
Excerpt: A schematic representation of the expression construct in which the candidate region (UCOE) is inserted upstream of the GFP gene in the absence of any other promoter sequences as used is shown as an inlay. As positive controls, the Ef1α promoter, the 2.2 kB A2UCOE sequence, and the 1.2 kB reverse orientation sequence 3′UCOE, were cloned into the same reporter construct as the candidate sequences. The percent GFP positive in the population was monitored as a metric for gene expression by flow cytometry analysis with each passage (% GFP). Stably transfected cells were assayed for % GFP+ and median fluorescent intensity (normalized to Ef1a promoter control). Data is reported as mean±SD from biological duplicates.
P19 cells were seeded at 25,000 cells/well in 12 well plates. 24 h after seeding, cells were transfected using Lipofectamine™ 2000 transfection reagent (Thermo Fisher) according to the manufacturer's instructions using 500 ng DNA/well and 2.5 μL of Lipofectamine per well. 24 hours after transfection, selection was initiated with 1 μg/mL puromycin (Sigma-Aldrich) in regular growth media and, from then on, cells were passaged at 1:15 or 1:20 dilutions whenever cells were 80-90% confluent (every 2-3 days) with frequent refreshing of puromycin-containing media to clear dead cells. After approximately 14-16 days, remaining cells were assumed to be stably transfected and were changed to regular growth media to initiate silencing experiments. During silencing experiments, the P19 cells were passaged every 2-3 days and re-seeded at 15,000 cells/well.
Fluorescence data throughout silencing experiments was obtained using a MACSQuant® VYB flow cytometer (Miltenyi Biotec). EGFP was measured through the 488-nm laser and 525/50 nm band pass filter. Flow cytometry data was analyzed using the FlowJo™ single cell flow cytometry analysis software (Tree Star). After being gated for singlets and viability, GFP+ gates in FlowJo were drawn such that a non-transfected or non-transduced P19 cell population was at 1% GFP+. Median values reported are of cells within the GFP+ gate, both % GFP positive and median are reported with the standard deviation of biological replicates.
As A2UOCE dually functions as a protective regulatory element and a universal promoter, the candidate UCOEs were further screened for standalone promoter activity. A similar experiment as the aforementioned screen was performed using a similar expression construct that lacked the Ef1a promoter. This construct was used to assess whether the candidate sequences could drive reporter expression and act as stand-alone functional promoters. Candidates were compared to the positive control of the EF1a promoter, which had ˜70% GFP+ cells after two weeks of antibiotic selection, showing a distinct positive population in the fluorescence histogram. The GFP+ gate (i.e., flow cytometry fluorescence threshold for GFP+ cells) was set to encompass 1% of untransfected cells and then applied to all samples. […] Such a result appears as a bimodal distribution on a histogram, with a peak below the gate threshold (i.e., GFP negative cell population) and a peak above it (i.e., the distinct GFP positive population mentioned above). […] In this study, a % GFP+ of at least 50% is considered to reflect the existence of a second population in the histograms, and thus a binary indicator of promoter function. […] The median GFP intensity of the GFP+ population was used a measure of the strength of the promoter, and normalized to the Ef1a positive control as shown in FIG. 2C.
This aligns with previous observations that the RNPA2B1 promoter is much stronger than that of CBX3 (Zhang, F., et al. (2010) Mol Ther, 18, 1640-1649 (7)). However, the RNPA2B1 promoter in A2UCOE is only 30% as strong as the EF1α promoter. […]

B1: Candidate 6: Full length SRF-UCOE, SEQ ID NO:1; region between human SURF1 and SURF2 including first introns, chr9 (nucleic acid, listed as Homo sapiens)
DNA: GCACACGACCACAATTCCACTGAAAGCATTTTAATACGGAACTTGTCACTCCCAGGGAGCCTCCGCTCAGCCGGCAGTTGGTTCATTTCAATCCCCACGACAACCCTTCAAAGTGCAGGGCAGACAGCAGGTGGCTCTGCCCAGGCGCCTGGATCACAGCCCGGCCTGCAGCCCTCACCTGGGCGCGGGGAGACCCTGAGGACGCTCCTCCAGGCGGCGCTGGCCGGGGCCTGCGGACACGGACGGGCGGGCTGAGCTCCGGGACCCCTCCCCGCGCCCCGCACCCCGCACCCCGCACCCCGCACCCCGCACCCGGCGCTCACCCGTCCCAGCCCCGCCGCCCGCAGCCCCAGCTGCAACGCAGCCACCGCCGCCATCGCACCCGGCCCCGCGGGCGCTTCCGGGACGCAGGAGGCATCTGCATCCGGGGCGCCGCTGAGTCCCGCCCAGAGCCCCGCCCCCGGCTCCAGGTTCTGCGAGCGGCTTCCGCCGGGCTGCTCCGCGGGCGCGTCGGCCATGAGCGAGTTGCCGGGCGACGTGCGGGCGTTTCTGCGGGAGCACCCGAGCCTGCGGCTCCAGACGGACGCCCGCAAGGTTCGCAGCGCGGGAGGGGAACGGAGTGGCGGAGAAGGGCGCAGTTGGGATGAGGGGCTGAGGGGAGGGCAGGGGAGAGGAGAGGGCAGGGGAGAGGGGAGAGGGGAGAGCAGGAGAGAGGGGAAGGCAGGGGAGAGGGCGCGGCGGGATCAGGGGAGGAGAGGGAAGGGGGCGCGGCAGGAGGGGGCACCAGGGAGCGGAGCCCTGGCCCTCCTGACGTCCTGCCCGCCCACGCGTCCGCAGGTGAGGTGCATCCTGACAGGTCACGAGCTGCCCTGCCGCCTGCCGGAGCTCCAGGTCTACACCCGCGGCAAAAAGTACCAGCGGCTGGTCCGCGCCTCCCCGGCCTTCGACTATGCAGAGTTCGAGCCGCACATCGTGCCCAGCACCAAGAACCCGTAGGTGGTC
With B1 the “peaks in fluorescence histogram (binary indicator of promoter function)” value (at least 50% GFP+ = second population) was “only one peak”, the “% GFP+ cells, representative flow cytometry example” value (promoterless GFP construct, after two weeks of antibiotic selection, one representative example) was 1.99% and the inherent promoter activity was “did not exhibit inherent promoter activity”. For the same molecule, the inherent promoter activity (listed as SRF-UCOE element) was “does not initiate transcription”.

Reference: patent publication US12611470B2, “Chromatin-opening element for stable long term gene expression” (CZ Biohub SF, LLC, priority 2019, dated 2026)
